In this assay the target is CD137 ligand expressed by the monocytes (human) (UniProt P41273). Put plainly: cell-based or functional assay.
Sequence of UniProt P41273 (P41273 whole entry): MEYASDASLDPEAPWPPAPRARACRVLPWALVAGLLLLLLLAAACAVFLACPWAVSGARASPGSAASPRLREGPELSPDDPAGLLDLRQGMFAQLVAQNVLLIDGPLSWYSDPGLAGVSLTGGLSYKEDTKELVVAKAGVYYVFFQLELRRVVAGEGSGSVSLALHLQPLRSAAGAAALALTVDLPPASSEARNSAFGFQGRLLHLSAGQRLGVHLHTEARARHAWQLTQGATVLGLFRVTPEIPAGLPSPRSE

“Recombinant CD137-Fc protein, consisting of the extracellular domain of human CD137 and the constant domain of human immunoglobulin G1 (Fc) (from UniProt Q07011 18-186) (Fc fusion)”: the 3H-thymidine incorporation of peripheral monocytes on immobilized CD137-Fc, against control cells was greater than 30 fold.

Values taken from patent US6627200.
